Sequences and labels used below:
T1: extracellular domain of human Mer, Fc fusion (R&D Systems 891-MR-100) (human, UniProt Q12866 21-505)
T1 construct: Bought protein; also called hMer; hMER; not shown: Fc of the bought ECD-Fc fusion
T1 sequence: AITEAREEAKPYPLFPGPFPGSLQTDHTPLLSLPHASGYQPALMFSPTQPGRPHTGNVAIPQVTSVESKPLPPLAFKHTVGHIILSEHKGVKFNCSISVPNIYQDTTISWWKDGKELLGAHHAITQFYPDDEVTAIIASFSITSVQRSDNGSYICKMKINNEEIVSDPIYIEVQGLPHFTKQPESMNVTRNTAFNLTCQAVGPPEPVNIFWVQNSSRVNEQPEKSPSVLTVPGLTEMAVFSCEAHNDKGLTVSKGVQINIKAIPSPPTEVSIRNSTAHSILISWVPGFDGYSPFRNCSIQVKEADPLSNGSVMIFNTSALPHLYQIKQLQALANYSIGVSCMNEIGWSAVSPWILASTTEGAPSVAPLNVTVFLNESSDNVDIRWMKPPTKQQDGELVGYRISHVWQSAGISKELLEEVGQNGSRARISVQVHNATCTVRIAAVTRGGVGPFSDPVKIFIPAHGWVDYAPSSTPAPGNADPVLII

T2: hTyro 3-ECD
T2 construct: not the His-Strep tagged ECD m13; also called Recombinant Human Dtk-Fc Chimera (R&D Systems 859-DK-100); not shown: Human Fc, and any linker, of the commercial chimera (R&D Systems 859-DK-100)
T2 chain: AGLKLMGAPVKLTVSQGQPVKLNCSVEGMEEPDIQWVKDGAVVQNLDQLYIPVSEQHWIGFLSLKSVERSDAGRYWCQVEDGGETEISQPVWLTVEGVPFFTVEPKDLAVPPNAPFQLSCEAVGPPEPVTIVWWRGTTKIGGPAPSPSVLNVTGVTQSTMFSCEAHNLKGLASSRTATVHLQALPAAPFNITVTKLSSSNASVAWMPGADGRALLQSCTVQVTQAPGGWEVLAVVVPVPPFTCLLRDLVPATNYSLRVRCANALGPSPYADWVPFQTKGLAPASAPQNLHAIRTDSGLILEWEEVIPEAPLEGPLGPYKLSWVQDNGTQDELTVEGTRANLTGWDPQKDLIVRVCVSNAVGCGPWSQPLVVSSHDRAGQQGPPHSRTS

T3: extracellular domain of human Axl, Fc fusion (R&D Systems 154-AL-100) (human, UniProt P30530 26-451)
T3 construct: Bought protein; also called hAxl; hAXL; not shown: Fc of the bought ECD-Fc fusion
T3 sequence: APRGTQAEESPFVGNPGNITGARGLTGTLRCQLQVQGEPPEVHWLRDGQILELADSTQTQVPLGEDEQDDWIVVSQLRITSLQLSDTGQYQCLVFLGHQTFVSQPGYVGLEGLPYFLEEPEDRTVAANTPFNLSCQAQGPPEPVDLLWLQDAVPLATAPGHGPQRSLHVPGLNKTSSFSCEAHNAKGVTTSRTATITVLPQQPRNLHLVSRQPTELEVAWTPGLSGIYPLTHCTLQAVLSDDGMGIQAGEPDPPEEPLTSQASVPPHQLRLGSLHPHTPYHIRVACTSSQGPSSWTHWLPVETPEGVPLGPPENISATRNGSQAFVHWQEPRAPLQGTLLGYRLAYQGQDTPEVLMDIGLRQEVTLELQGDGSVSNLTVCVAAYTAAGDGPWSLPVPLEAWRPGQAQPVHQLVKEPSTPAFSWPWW

T4: Tyro3 ECD FNIII 1-FNIII-2
T4 construct: also called FNIII 1 + FNIII 2 fragment of hTyro3 ECD, His-Strep tagged
T4 fragment: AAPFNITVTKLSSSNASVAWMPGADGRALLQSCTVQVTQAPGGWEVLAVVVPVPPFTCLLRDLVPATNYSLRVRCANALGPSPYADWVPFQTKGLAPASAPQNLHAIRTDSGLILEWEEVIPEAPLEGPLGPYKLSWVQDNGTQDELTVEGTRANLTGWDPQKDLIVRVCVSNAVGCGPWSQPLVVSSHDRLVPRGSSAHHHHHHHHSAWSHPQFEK

T5: Ig-1 and Ig-2 domains fragment of human Tyro3 ECD, His-Strep tagged (human)
T5 construct: also called Ig1-Ig2 fragment
T5 chain: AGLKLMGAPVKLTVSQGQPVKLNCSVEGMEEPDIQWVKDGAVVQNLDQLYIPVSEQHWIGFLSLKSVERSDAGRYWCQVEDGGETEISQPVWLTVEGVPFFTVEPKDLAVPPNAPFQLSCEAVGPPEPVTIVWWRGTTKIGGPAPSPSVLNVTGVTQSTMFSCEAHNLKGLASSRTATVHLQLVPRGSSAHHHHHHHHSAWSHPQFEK

T6: Ig-1 domain fragment of human Tyro3 ECD, His-Strep tagged (human)
T6 chain: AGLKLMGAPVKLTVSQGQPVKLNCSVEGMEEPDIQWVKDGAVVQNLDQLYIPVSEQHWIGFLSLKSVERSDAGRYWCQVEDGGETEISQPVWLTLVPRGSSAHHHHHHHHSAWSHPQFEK

B1: anti-Tyro3 scFv 2414 (scFv, V domains shown)
VH: EVQLVQSGADVKKPGASLTISCQASGYTFTDYWISWVRQKPGKGLEWMGQINRHASNTMYGPSFQGHVTISADRSTATAYLQWRSLEASDTAMYYCVRSGGATSGGTIPEYYQHWGPGTLVTVSS
VL: SYELTQPPSVSVSPGQTARITCSGDALPKKYAYWYQQKSGQAPVLVIYEDWKRASGIPERFSGSSSGTMATLTISGAQVEDEADYYCYSQERKGNYFVFGGGTKLTVL
notes: Tested as a single-chain Fv made in E. coli
B2: anti-Tyro3 scFv 2713 (scFv, V domains shown)
VH: B1 VH with Q50R, N52S, A55G, N57Q, M59Y, S99A, A102Q
VL: B1 VL with W51H, Q90I, E91S, R92P, K93A, F97G
notes: as for B1
B3: anti-Tyro3 scFv 2412 (scFv, V domains shown)
VH: B1 VH with Q50R, N52R, R53P, H54L, A55L, N57H, G100W, G101L
VL: B1 VL with W51A, A54V, Q90A, E91S, R92A, K93N, F97R
notes: as for B1
B4: anti-Tyro3 scFv 2709 (scFv, V domains shown)
VH: B1 VH with Q50A, N52S, H54N, A55G, N57T, M59Y, A102L, T122P
VL: B1 VL with W51K, A54V, Q90L, E91A, R92V, K93D, F97G
notes: as for B1
B5: anti-Tyro3 scFv 2711 (scFv, V domains shown)
VH: B1 VH with N52R, R53G, H54Q, A55H, N57S, M59L, S99H, G101A, A102S
VL: B1 VL with W51A, A54S, Q90L, E91S, R92D, K93S
notes: as for B1
B6: anti-Tyro3 scFv 2415 (scFv, V domains shown)
VH: B1 VH with N52R, R53G, H54P, N57A, M59H, S99H, G100Q, G101Q, A102Q
VL: B1 VL with W51K, A54I, Q90T, E91S, R92T, K93G, F97M
notes: as for B1
B7: anti-Tyro3 scFv 2717 (scFv, V domains shown)
VH: EVQLVQSGADVKKPGASLTISCQASGYTFTDYWISWVRQKPGKGLEWMGEIFLPPSTTVYGPSFQGHVTISADRSTATAYLQWRSLEASDTAMYYCVRQTRLTSGGTIPEYYQHWGPGTLVTVSS
VL: B1 VL with W51N, A54G, Q90K, E91S, R92P, K93E, F97M
notes: as for B1
B8: anti-Tyro3 scFv 2410 (scFv, V domains shown)
VH: B1 VH with N52V, R53P, H54R, N57R, M59N, S99P, G100Y, G101F, A102Q
VL: B1 VL with W51E, K93N, F97A
notes: as for B1

Where a chain is given by its changes, count along the chain named.

In the first experiment the target is T1, extracellular domain of human Mer, Fc …. The experiment in a line: ELISA, ECD coated 1 µg/well, scFv 1 µg/mL, anti-tag-HRP. As to the method: (§1) Extracellular domains of hTyro 3 (859-DK-100), hAxl (154-AL-100) or hMer (891-MR-100) from R&D Systems were coated onto 96-wells microtiter plates (1 μg/well) in PBS and incubated overnight at 4° C. Plates were washed three times with PBS and blocked in PBS/3% BSA for 1 hour at RT. Plates were washed as above and scFvs were added at 1 μg/mL (diluted in PBS) and incubated for 1 hour at RT. Plates were washed three times with PBST (PBS/0.01% Tween-20) and secondary antibody anti-FLAG-HRP was added (Abcam, ab49763, 1/5000 dilution in blocking buffer) for 1 hour at RT. Plates were washed as above with PBST and signal was developed with Ultra-TMB reagent (Thermo Scientific, 34028).
Turning to B1, the binding result is reported as “no binding (tested: 1 µg/mL)”.

Consider B2, for which the binding result is recorded as “no binding (tested: 1 µg/mL)”.

With B3, the binding result is given as “no binding (tested: 1 µg/mL)”.

With B4, the binding result is recorded as “no binding (tested: 1 µg/mL)”.

Turning to B5, the binding result is “no binding (tested: 1 µg/mL)”.

B6: the binding result is given as “no binding (tested: 1 µg/mL)”.

Consider B7, for which the binding result is reported as “no binding (tested: 1 µg/mL)”.

For the molecule B8, the binding result is on record as “no binding (tested: 1 µg/mL)”.

Another experiment concerns the target T2, hTyro 3-ECD. Described as above. As to the method:
as §1
For B1, the binding result is given as “binds”.

For B2, the binding result was “binds”.

As for B3, the binding result is given as “binds”.

Turning to B4, the binding result is listed as “binds”.

For the molecule B5, the binding result is recorded as “binds”.

B6: the binding result was “binds”.

Consider B8, for which the binding result is recorded as “binds”.

The target in a further experiment is T3, extracellular domain of human Axl, Fc …. The description is as above. As to the method:
as §1
With B1, the binding result is “no binding (tested: 1 µg/mL)”.

Take B2: the binding result was “no binding (tested: 1 µg/mL)”.

On to B3, for which the binding result was “no binding (tested: 1 µg/mL)”.

Regarding B4, the binding result is “no binding (tested: 1 µg/mL)”.

Take B5: the binding result is “no binding (tested: 1 µg/mL)”.

Take B6: the binding result is reported as “no binding (tested: 1 µg/mL)”.

In the case of B7, the binding result is on record as “no binding (tested: 1 µg/mL)”.

With B8, the binding result is “no binding (tested: 1 µg/mL)”.

For another experiment, the target named is T4, Tyro3 ECD FNIII 1-FNIII-2. The experiment in a line: sandwich ELISA, Strep-tagged fragment captured on StrepMAB plate, scFv 10 µg/mL (Table 17), anti-FLAG-HRP. A general note: ELISA stands for enzyme-linked immunosorbent assay.
Consider B1, for which the binding result was “no binding (tested: 10 µg/mL)”.

For the molecule B2, the binding result is listed as “no binding (tested: 10 µg/mL)”.

As for B3, the binding result is “no binding (tested: 10 µg/mL)”.

On to B4, for which the binding result is reported as “no binding (tested: 10 µg/mL)”.

Turning to B5, the binding result is “no binding (tested: 10 µg/mL)”.

B6: the binding result is reported as “no binding (tested: 10 µg/mL)”.

For the molecule B7, the binding result was “no binding (tested: 10 µg/mL)”.

For the molecule B8, the binding result is given as “no binding (tested: 10 µg/mL)”.

The next experiment has as its target T5, Ig-1 and Ig-2 domains fragment of human …. Described as above.
With B1, the binding result is recorded as “binds”.

B2: the binding result was “binds”.

Consider B3, for which the binding result is recorded as “binds”.

On to B4, for which the binding result is on record as “binds”.

B5: the binding result is on record as “binds”.

In the case of B6, the binding result is given as “binds”.

In the case of B7, the binding result is “no binding (tested: 10 µg/mL)”.

Turning to B8, the binding result is given as “binds”.

The target of another experiment is T6, Ig-1 domain fragment of human Tyro3 …. The experiment is described as above.
As to B1, the binding result is “binds”.

Take B2: the binding result was “binds”.

As to B3, the binding result is “binds”.

Take B4: the binding result was “binds”.

With B5, the binding result was “binds”.

In the case of B6, the binding result is given as “binds”.

As for B7, the binding result is recorded as “binds”.

Consider B8, for which the binding result is recorded as “binds”.

The record behind these values is patent US20180105596A1 (ELSALYS BIOTECH, published 2018).
